Source: US20260242478A1 (published 2026)
Where no end group is shown, it is not given here.

Tests used:
[1] = molecular target: T1, Anti-PSMA Fab (SEQ ID NOs: 19, 20); experiment: phage binding ELISA, clonal phage on plate-captured biotinylated PSMA Fab
T1 construct: Biotinylated and captured on neutravidin coated plates in the phage ELISA; also called 006 PSMA Fab
Method: (§1) Clonal phage were harvested as crude supernatants and screened via standard ELISAs. […] Prior to the addition of clonal phage. wells were incubated with blocking buffer and PSMA antigen or blocking buffer alone. Without washing or aspirating, clonal phage supernatants were then added to the wells and incubated for a short time. Wells were then washed followed by detection of bound phage using a horse radish conjugated anti-M13 antibody.

[2] = molecular target: T1, Anti-PSMA Fab (SEQ ID NOs: 19, 20); experiment: phage binding ELISA on plate-captured PSMA Fab, wells pre-incubated with PSMA antigen as competitor
Method: as §1

[3] = molecular target: T2, Anti-PSMA Fab (SEQ ID NOs: 19, 20); experiment: phage ELISA; biotinylated PSMA Fab on neutravidin plate, bound phage detected with anti-M13-HRP;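 note: crude clonal phage supernatants added, without a wash, to wells pretreated with PSMA antigen in blocking buffer or with blocking buffer only, then briefly incubated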
T2 construct: Biotinylated and captured on neutravidin coated plates in the phage ELISA; also called 006 PSMA Fab
Method: as §1

[4] = molecular target: T2, Anti-PSMA Fab (SEQ ID NOs: 19, 20); experiment: phage ELISA; PSMA Fab on plate pre-incubated with PSMA antigen as competitor, anti-M13-HRP detection;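 note: clonal phage from crude supernatants added without washing to wells preblocked with or without PSMA antigen, washed, bound phage read out by ELISA with HRP-linked anti-M13 antibody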
Method: as §1

[5] = molecular target: T3, Anti-PSMA Fab (SEQ ID NOs: 19, 20); experiment: as above; remark: listed apart in the source
T3 construct: Biotinylated and captured on neutravidin coated plates in the phage ELISA; also called 006 PSMA Fab
Method: as §1

[6] = molecular target: T3, Anti-PSMA Fab (SEQ ID NOs: 19, 20); experiment: phage ELISA; biotinylated PSMA Fab on neutravidin plate, clonal phage supernatant, anti-M13-HRP detection;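 note: wells were preincubated with blocking buffer containing PSMA antigen or with blocking buffer only, then phage supernatant was added without washing for a brief incubation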
Method: as §1

B1: Phage-2229 (peptide)
peptide: LLKWCTPPWMCELH
[1]
  Anti-PSMA Fab (SEQ ID NOs: 19, 20) signal: 1.57
[2]
  Anti-PSMA Fab signal in the presence of PSMA: 0.0932

B2: Phage-2215 (peptide)
peptide: GVKWCTPPWMCEVA
notes: Tested as clonal phage supernatant, with the peptide fused to pIII of the bacteriophage
[3]
  Phage binding ELISA, Anti-PSMA Fab signal: 1.59
[4]
  Phage binding ELISA, Anti-PSMA Fab signal in the presence of PSMA: 0.0672

B3: Phage-1990 (peptide)
peptide: LMKWCIPEWMCVDS
notes: tested as crude phage supernatant
[5]
  Phage binding ELISA, Anti-PSMA Fab signal in the presence of PSMA: 0.0631
[6]
  Phage binding ELISA, Anti-PSMA Fab signal: 1.87

B4: Phage-1989 (peptide)
peptide: EPKLCTPTWMCIGF
notes: as for B3
[5]
  Phage binding ELISA, Anti-PSMA Fab signal in the presence of PSMA: 0.118
[6]
  Phage binding ELISA, Anti-PSMA Fab signal: 1.87

B5: Phage-1991 (peptide)
peptide: LVKWCTPSWMCINL
notes: as for B3
[5]
  Phage binding ELISA, Anti-PSMA Fab signal in the presence of PSMA: 0.0883
[6]
  Phage binding ELISA, Anti-PSMA Fab signal: 1.87

B6: Phage-2228 (peptide)
peptide: LVKWCIPQWMCEQA
[1]
  Anti-PSMA Fab (SEQ ID NOs: 19, 20) signal: 1.57
[2]
  Anti-PSMA Fab signal in the presence of PSMA: 0.0712

B7: Phage-2224 (peptide)
peptide: AIKWCTPPWMCDWH
[1]
  Anti-PSMA Fab (SEQ ID NOs: 19, 20) signal: 1.58
[2]
  Anti-PSMA Fab signal in the presence of PSMA: 0.131

B8: Phage-2232 (peptide)
peptide: QLNWCRPAWMCEGF
[1]
  Anti-PSMA Fab (SEQ ID NOs: 19, 20) signal: 1.57
[2]
  Anti-PSMA Fab signal in the presence of PSMA: 0.128

B9: Phage-2231 (peptide)
peptide: LSKWCIPEWMCAVM
modifications: cysteine pairing not given here; also: pIII fusion on bacteriophage (not given here)
[1]
  Anti-PSMA Fab (SEQ ID NOs: 19, 20) signal: 1.57
[2]
  Anti-PSMA Fab signal in the presence of PSMA: 0.0848

B10: Phage-1993 (peptide)
peptide: EVKWCTPPWMCMFD
notes: as for B3
[5]
  Phage binding ELISA, Anti-PSMA Fab signal in the presence of PSMA: 0.073
[6]
  Phage binding ELISA, Anti-PSMA Fab signal: 1.86

B11: Phage-2222 (peptide)
peptide: TEKWCIPQWMCEAT
modifications: cysteine pairing not given here; also: displayed on phage, fused to pIII
notes: Peptide-180 library clone, tested as clonal phage (peptide fused to the pIII filament of the bacteriophage)
[1]
  Anti-PSMA Fab (SEQ ID NOs: 19, 20) signal: 1.58
[2]
  Anti-PSMA Fab signal in the presence of PSMA: 0.0783

B12: Phage-1988 (peptide)
peptide: LDNWCRPLWMCTGF
notes: as for B3
[5]
  Phage binding ELISA, Anti-PSMA Fab signal in the presence of PSMA: 0.0836
[6]
  Phage binding ELISA, Anti-PSMA Fab signal: 1.87

B13: Phage-1987 (peptide)
peptide: VEKWCTPPWMCAGW
modifications: cysteine pairing not given here; also: displayed as fusion to phage pIII
notes: as for B3
[5]
  Phage binding ELISA, Anti-PSMA Fab signal in the presence of PSMA: 0.0659
[6]
  Phage binding ELISA, Anti-PSMA Fab signal: 1.87

B14: Phage-2207 (peptide)
peptide: PTKWCIPEWMCSVI
notes: as for B2
[3]
  Phage binding ELISA, Anti-PSMA Fab signal: 1.61
[4]
  Phage binding ELISA, Anti-PSMA Fab signal in the presence of PSMA: 0.0587

B15: Phage-1984 (peptide)
peptide: VVKMCRPAWMCDLV
notes: as for B3
[5]
  Phage binding ELISA, Anti-PSMA Fab signal in the presence of PSMA: 0.0833
[6]
  Phage binding ELISA, Anti-PSMA Fab signal: 1.88

B16: Phage-2217 (peptide)
peptide: EVKWCIPSWMCESE
notes: as for B2
[3]
  Phage binding ELISA, Anti-PSMA Fab signal: 1.59
[4]
  Phage binding ELISA, Anti-PSMA Fab signal in the presence of PSMA: 0.0904

B17: Phage-2213 (peptide)
peptide: VIPLCSPPWMCFMS
notes: as for B2
[3]
  Phage binding ELISA, Anti-PSMA Fab signal: 1.6
[4]
  Phage binding ELISA, Anti-PSMA Fab signal in the presence of PSMA: 0.0631

B18: Phage-2230 (peptide)
peptide: TDMWCIPPWMCERI
[1]
  Anti-PSMA Fab (SEQ ID NOs: 19, 20) signal: 1.57
[2]
  Anti-PSMA Fab signal in the presence of PSMA: 0.0846

B19: Phage-2209 (peptide)
peptide: QDHWCVPQWMCEML
notes: as for B2
[3]
  Phage binding ELISA, Anti-PSMA Fab signal: 1.61
[4]
  Phage binding ELISA, Anti-PSMA Fab signal in the presence of PSMA: 0.07

B20: Phage-2214 (peptide)
peptide: PEKWCIPEWMCDAL
notes: Tested as clonal phage supernatant, with the peptide fused to pIII of the bacteriophage; Read from the row with '-' as the Peptide-180 residue: PEKWCIPEWMCDAL
[3]
  Phage binding ELISA, Anti-PSMA Fab signal: 1.6
[4]
  Phage binding ELISA, Anti-PSMA Fab signal in the presence of PSMA: 0.0578

B21: Phage-2216 (peptide)
peptide: WAQWCTPSWMCEGF
notes: as for B2
[3]
  Phage binding ELISA, Anti-PSMA Fab signal: 1.59
[4]
  Phage binding ELISA, Anti-PSMA Fab signal in the presence of PSMA: 0.0929

B22: Phage-1995 (peptide)
peptide: MGKWCIPPWMCVVD
notes: as for B3
[5]
  Phage binding ELISA, Anti-PSMA Fab signal in the presence of PSMA: 0.123
[6]
  Phage binding ELISA, Anti-PSMA Fab signal: 1.86

B23: Phage-1986 (peptide)
peptide: YEKWCTPPWMCEML
notes: as for B3
[5]
  Phage binding ELISA, Anti-PSMA Fab signal in the presence of PSMA: 0.0833
[6]
  Phage binding ELISA, Anti-PSMA Fab signal: 1.88

B24: Phage-1981 (peptide)
peptide: PPILCIPQWMCSPT
modifications: cysteine pairing not given here; also: displayed as fusion to phage pIII
[5]
  Phage binding ELISA, Anti-PSMA Fab signal in the presence of PSMA: 0.0785
[6]
  Phage binding ELISA, Anti-PSMA Fab signal: 1.88

B25: Phage-2234 (peptide)
peptide: MPNWCTPTWMCQGF
[1]
  Anti-PSMA Fab (SEQ ID NOs: 19, 20) signal: 1.57
[2]
  Anti-PSMA Fab signal in the presence of PSMA: 0.0682

B26: Phage-2225 (peptide)
peptide: LFKVCTPSWMCSGF
[1]
  Anti-PSMA Fab (SEQ ID NOs: 19, 20) signal: 1.58
[2]
  Anti-PSMA Fab signal in the presence of PSMA: 0.0813

B27: Phage-2233 (peptide)
peptide: EIQWCTPSWMCPWL
[1]
  Anti-PSMA Fab (SEQ ID NOs: 19, 20) signal: 1.57
[2]
  Anti-PSMA Fab signal in the presence of PSMA: 0.0668

B28: Phage-2211 (peptide)
peptide: PGKWCIPAWMCSLV
notes: as for B2
[3]
  Phage binding ELISA, Anti-PSMA Fab signal: 1.6
[4]
  Phage binding ELISA, Anti-PSMA Fab signal in the presence of PSMA: 0.157

B29: Phage-2219 (peptide)
peptide: SENWCIPAWMCSGF
notes: as for B2
[3]
  Phage binding ELISA, Anti-PSMA Fab signal: 1.59
[4]
  Phage binding ELISA, Anti-PSMA Fab signal in the presence of PSMA: 0.111

B30: Phage-2220 (peptide)
peptide: EPKWCTPEWMCLNL
notes: as for B2
[3]
  Phage binding ELISA, Anti-PSMA Fab signal: 1.58
[4]
  Phage binding ELISA, Anti-PSMA Fab signal in the presence of PSMA: 0.0915

B31: Phage-1983 (peptide)
peptide: IFEWCVPAWMCESR
notes: as for B3
[5]
  Phage binding ELISA, Anti-PSMA Fab signal in the presence of PSMA: 0.104
[6]
  Phage binding ELISA, Anti-PSMA Fab signal: 1.88

B32: Phage-2221 (peptide)
peptide: GHQWCIPQWMCVGL
notes: as for B2
[3]
  Phage binding ELISA, Anti-PSMA Fab signal: 1.58
[4]
  Phage binding ELISA, Anti-PSMA Fab signal in the presence of PSMA: 0.0809

B33: Phage-1992 (peptide)
peptide: PVKWCIPDWMCAYL
modifications: cysteine pairing not given here; also: displayed as fusion to phage pIII
notes: as for B3
[5]
  Phage binding ELISA, Anti-PSMA Fab signal in the presence of PSMA: 0.115
[6]
  Phage binding ELISA, Anti-PSMA Fab signal: 1.86

B34: Phage-2212 (peptide)
peptide: TEKWCIPSWMCEIS
notes: as for B2
[3]
  Phage binding ELISA, Anti-PSMA Fab signal: 1.6
[4]
  Phage binding ELISA, Anti-PSMA Fab signal in the presence of PSMA: 0.0837

B35: Phage-2218 (peptide)
peptide: VPKQCVPEWMCSGF
notes: as for B2
[3]
  Phage binding ELISA, Anti-PSMA Fab signal: 1.59
[4]
  Phage binding ELISA, Anti-PSMA Fab signal in the presence of PSMA: 0.0779

B36: Phage-1994 (peptide)
peptide: FDKWCIPTWMCELV
notes: as for B3
[5]
  Phage binding ELISA, Anti-PSMA Fab signal in the presence of PSMA: 0.145
[6]
  Phage binding ELISA, Anti-PSMA Fab signal: 1.86

B37: Phage-2206 (peptide)
peptide: LEKWCIPAWMCAVL
modifications: cysteine pairing not given here; also: fused to pIII of bacteriophage
notes: as for B2
[3]
  Phage binding ELISA, Anti-PSMA Fab signal: 1.61
[4]
  Phage binding ELISA, Anti-PSMA Fab signal in the presence of PSMA: 0.078

B38: Phage-2208 (peptide)
peptide: ALHWCIPEWMCSSM
notes: as for B2
[3]
  Phage binding ELISA, Anti-PSMA Fab signal: 1.61
[4]
  Phage binding ELISA, Anti-PSMA Fab signal in the presence of PSMA: 0.103

B39: Phage-2226 (peptide)
peptide: LAYWCTPAWMCEGF
[1]
  Anti-PSMA Fab (SEQ ID NOs: 19, 20) signal: 1.57
[2]
  Anti-PSMA Fab signal in the presence of PSMA: 0.112

B40: Phage-2227 (peptide)
peptide: SELWCIPPWMCNFL
[1]
  Anti-PSMA Fab (SEQ ID NOs: 19, 20) signal: 1.57
[2]
  Anti-PSMA Fab signal in the presence of PSMA: 0.0684

B41: Phage-2223 (peptide)
peptide: FLKWCTPEWMCSDV
[1]
  Anti-PSMA Fab (SEQ ID NOs: 19, 20) signal: 1.58
[2]
  Anti-PSMA Fab signal in the presence of PSMA: 0.128

B42: Phage-1996 (peptide)
peptide: GSNWCKPAWMCEIM
notes: as for B3
[5]
  Phage binding ELISA, Anti-PSMA Fab signal in the presence of PSMA: 0.0723
[6]
  Phage binding ELISA, Anti-PSMA Fab signal: 1.86

B43: Phage-1982 (peptide)
peptide: VGMLCKPSWMCDWL
notes: as for B3
[5]
  Phage binding ELISA, Anti-PSMA Fab signal in the presence of PSMA: 0.0813
[6]
  Phage binding ELISA, Anti-PSMA Fab signal: 1.88

B44: Phage-2210 (peptide)
peptide: THNWCTPQWMCDGF
notes: as for B2
[3]
  Phage binding ELISA, Anti-PSMA Fab signal: 1.6
[4]
  Phage binding ELISA, Anti-PSMA Fab signal in the presence of PSMA: 0.0628

B45: Phage-1985 (peptide)
peptide: LENWCIPRWMCHGF
notes: as for B3
[5]
  Phage binding ELISA, Anti-PSMA Fab signal in the presence of PSMA: 0.152
[6]
  Phage binding ELISA, Anti-PSMA Fab signal: 1.88
